Results as given in US20170319643A1.

Target: elastase (porcine pancreas, Sigma Aldrich) (porcine) (UniProt P00772)
Assay: cell-based or functional assay

Chain of alpha-1-antitrypsin enriched native human HDL (P01009 25-418): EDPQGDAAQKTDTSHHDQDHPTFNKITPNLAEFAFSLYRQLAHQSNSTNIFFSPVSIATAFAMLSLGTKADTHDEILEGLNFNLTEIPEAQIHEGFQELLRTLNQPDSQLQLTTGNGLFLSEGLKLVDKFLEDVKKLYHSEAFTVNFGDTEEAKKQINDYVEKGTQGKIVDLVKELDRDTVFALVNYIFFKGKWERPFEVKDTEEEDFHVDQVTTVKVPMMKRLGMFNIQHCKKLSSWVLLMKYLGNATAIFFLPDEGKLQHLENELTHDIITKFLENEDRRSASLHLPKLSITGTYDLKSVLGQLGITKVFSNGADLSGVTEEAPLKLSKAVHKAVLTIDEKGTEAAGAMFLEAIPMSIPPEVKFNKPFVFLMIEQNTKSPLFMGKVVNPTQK
Chain of elastase (porcine pancreas, Sigma Aldrich) (porcine) (P00772 27-266): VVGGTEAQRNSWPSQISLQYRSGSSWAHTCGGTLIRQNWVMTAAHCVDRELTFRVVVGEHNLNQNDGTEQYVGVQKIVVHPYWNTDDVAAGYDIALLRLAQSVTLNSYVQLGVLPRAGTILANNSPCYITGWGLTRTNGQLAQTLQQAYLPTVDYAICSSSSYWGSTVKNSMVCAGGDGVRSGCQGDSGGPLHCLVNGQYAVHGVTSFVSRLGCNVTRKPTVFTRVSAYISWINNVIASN

elastase induced TNF-α production by J774 macrophages, change compared to PBS pretreatment: -97%
Substance: alpha-1-antitrypsin enriched native human HDL (from UniProt P01009 25-418)
